The text below walks through data of paper PMC2148126.

Like-named read-outs stand apart in the source and are kept apart here.

In assay [1] the target is Alf1p-myc (S. cerevisiae) (UniProt P53904). The experiment in a line: co-IP.
Assay [2] has the same target. As to the kind of experiment: co-IP. This is another data set of the same source.

Chain of UniProt P53904 (P53904 whole entry): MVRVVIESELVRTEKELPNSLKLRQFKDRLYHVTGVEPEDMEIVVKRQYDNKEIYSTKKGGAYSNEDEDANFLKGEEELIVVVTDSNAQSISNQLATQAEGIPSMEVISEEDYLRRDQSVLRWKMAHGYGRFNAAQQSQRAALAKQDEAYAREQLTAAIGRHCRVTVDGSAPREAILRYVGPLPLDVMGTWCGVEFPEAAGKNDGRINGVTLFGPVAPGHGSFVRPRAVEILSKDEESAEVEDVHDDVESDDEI

For “α-tubulin, endogenous in yeast extract (from UniProt P09733 1-447) (natural protein)”, the ratio of α-tubulin to β-tubulin precipitated in assay [1] turned out to be 2 fold; in assay [2], 20 fold.
